Test results: the supplement of paper PMC9112550, “Optimization of the antimicrobial peptide Bac7 by deep mutational scanning” (BMC Biology, 2022)

Tested on: Escherichia coli TOP10
Assay: shrunken log2 fold change of peptide-encoding DNA abundance (4.5 h post-induction vs induction); higher = less antimicrobial activity (less host growth inhibition)
Details: time post-induction: 4.5 h; library: site-saturation at positions 5, 18, 19, 20
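Also: peptides expressed intracellularly from a pBAD plasmid library in pooled LB shake-flask culture, induced with 0.3% L-arabinose, DNA abundance read by NGS, three biological replicates, DESeq2 with apeglm shrinkage.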

Sequence | shrunken log2 fold change
RRIRKRPPRLPRPRPRPWHQPRP | -0.0165
RRIRKRPPRLPRPRPRPWIAPRP | 0.285
RRIRKRPPRLPRPRPRPWIQPRP | -0.01
RRIRKRPPRLPRPRPRPWKAPRP | 0.49
RRIRKRPPRLPRPRPRPWKYPRP | -0.067
RRIRKRPPRLPRPRPRPWLYPRP | 0.00941
RRIRKRPPRLPRPRPRPWNGPRP | -0.0782
RRIRKRPPRLPRPRPRPWPGPRP | 0.342
RRIRKRPPRLPRPRPRPWPKPRP | 0.274
RRIRKRPPRLPRPRPRPWREPRP | 0.184
RRIRKRPPRLPRPRPRPWWCPRP | 0.0624
RRIRKRPPRLPRPRPRPWWTPRP | 0.0991
RRIRKRPPRLPRPRPRPWYLPRP | 0.0253
RRIRKRPPRLPRPRPRPYAIPRP | 0.0303
RRIRKRPPRLPRPRPRPYCGPRP | 0.0176
RRIRKRPPRLPRPRPRPYCRPRP | -0.214
RRIRKRPPRLPRPRPRPYEKPRP | -0.0121
RRIRKRPPRLPRPRPRPYEMPRP | 0.138
RRIRKRPPRLPRPRPRPYFWPRP | -0.0468
RRIRKRPPRLPRPRPRPYGMPRP | -0.284
RRIRKRPPRLPRPRPRPYHDPRP | 0.035
RRIRKRPPRLPRPRPRPYHNPRP | -0.227
RRIRKRPPRLPRPRPRPYKWPRP | 0.000411
RRIRKRPPRLPRPRPRPYLRPRP | -0.0481
RRIRKRPPRLPRPRPRPYMGPRP | -0.00674

Sequence | shrunken log2 fold change
RRIRKRPPRLPRPRPRPYMSPRP | 0.0659
RRIRKRPPRLPRPRPRPYNAPRP | -0.171
RRIRKRPPRLPRPRPRPYNCPRP | 0.00529
RRIRKRPPRLPRPRPRPYNLPRP | -0.119
RRIRKRPPRLPRPRPRPYNQPRP | -0.312
RRIRKRPPRLPRPRPRPYQCPRP | -0.0062
RRIRKRPPRLPRPRPRPYQDPRP | 0.0178
RRIRKRPPRLPRPRPRPYQSPRP | 0.000846
RRIRKRPPRLPRPRPRPYRHPRP | -1.11
RRIRKRPPRLPRPRPRPYRMPRP | -0.329
RRIRKRPPRLPRPRPRPYSDPRP | 0.0075
RRIRKRPPRLPRPRPRPYSEPRP | -0.269
RRIRKRPPRLPRPRPRPYSGPRP | -0.839
RRIRKRPPRLPRPRPRPYSHPRP | -0.134
RRIRKRPPRLPRPRPRPYVGPRP | -0.0717
RRIRKRPPRLPRPRPRPYWKPRP | 0.0282
RRIRKRPPRLPRPRPRPYWTPRP | -0.26
RRIRKRPPRLPRPRPRPYYKPRP | -0.445
RRIRKRPPRLPRPRPRPYYVPRP | -0.197
RRIRLRPPRLPRPRPRPACMPRP | 0.00459
RRIRLRPPRLPRPRPRPADCPRP | 0.142
RRIRLRPPRLPRPRPRPADIPRP | -0.00142
RRIRLRPPRLPRPRPRPAEHPRP | 0.141
RRIRLRPPRLPRPRPRPAFTPRP | 0.238
RRIRLRPPRLPRPRPRPAGGPRP | 0.169

Sequence | shrunken log2 fold change
RRIRLRPPRLPRPRPRPAGIPRP | -0.043
RRIRLRPPRLPRPRPRPAGYPRP | -0.0817
RRIRLRPPRLPRPRPRPAHEPRP | 0.408
RRIRLRPPRLPRPRPRPAHKPRP | 0.384
RRIRLRPPRLPRPRPRPAIHPRP | -0.192
RRIRLRPPRLPRPRPRPAKLPRP | -0.0675
RRIRLRPPRLPRPRPRPALGPRP | 0.935
RRIRLRPPRLPRPRPRPALTPRP | 0.129
RRIRLRPPRLPRPRPRPANGPRP | 0.115
RRIRLRPPRLPRPRPRPANPPRP | -0.0638
RRIRLRPPRLPRPRPRPANQPRP | 0.137
RRIRLRPPRLPRPRPRPAPIPRP | 0.0892
RRIRLRPPRLPRPRPRPAQEPRP | -0.023
RRIRLRPPRLPRPRPRPASVPRP | -0.0571
RRIRLRPPRLPRPRPRPAWNPRP | 0.133
RRIRLRPPRLPRPRPRPAYGPRP | -0.0437
RRIRLRPPRLPRPRPRPCAHPRP | -0.417
RRIRLRPPRLPRPRPRPCAKPRP | 0.132
RRIRLRPPRLPRPRPRPCCEPRP | 0.812
RRIRLRPPRLPRPRPRPCEDPRP | 0.00976
RRIRLRPPRLPRPRPRPCERPRP | -0.0471
RRIRLRPPRLPRPRPRPCGAPRP | 0.356
RRIRLRPPRLPRPRPRPCGEPRP | 0.122
RRIRLRPPRLPRPRPRPCGGPRP | 0.091
RRIRLRPPRLPRPRPRPCHLPRP | 0.0143
